{"source": "patent US20230414780A1", "about": "(VECT HORUS, published 2023)", "binders": {"B1": {"name": "VHH A (C5) (VHH)", "VHH": "EVQLVESGGGVVQPGGSLKLSCVASGTDFSINFIRWYRQAPGKQREFVAGFTATGNTNYADSMKGRFTISRDNTKNAVYLQIDSLKPEDTAVYYCYMLDKWGQGTQVTVSS", "notes": "form with the C-terminal myc-His6 tag (x = 1), since the VHHs were detected with anti-6His or anti-cMyc; the same holds for m12 to m126"}}, "key": {"[1]": {"biological_target": "T1, mouse transferrin receptor (mTfR) fused to EGFP, on CHO cells (mouse, UniProt Q62351 1-763)", "T1 construct": "whole, on cells; also called mouse TfR; CHO-mTfR-EGFP; not shown: EGFP", "T1 sequence (Q62351 whole entry, the tested form may be a part)": "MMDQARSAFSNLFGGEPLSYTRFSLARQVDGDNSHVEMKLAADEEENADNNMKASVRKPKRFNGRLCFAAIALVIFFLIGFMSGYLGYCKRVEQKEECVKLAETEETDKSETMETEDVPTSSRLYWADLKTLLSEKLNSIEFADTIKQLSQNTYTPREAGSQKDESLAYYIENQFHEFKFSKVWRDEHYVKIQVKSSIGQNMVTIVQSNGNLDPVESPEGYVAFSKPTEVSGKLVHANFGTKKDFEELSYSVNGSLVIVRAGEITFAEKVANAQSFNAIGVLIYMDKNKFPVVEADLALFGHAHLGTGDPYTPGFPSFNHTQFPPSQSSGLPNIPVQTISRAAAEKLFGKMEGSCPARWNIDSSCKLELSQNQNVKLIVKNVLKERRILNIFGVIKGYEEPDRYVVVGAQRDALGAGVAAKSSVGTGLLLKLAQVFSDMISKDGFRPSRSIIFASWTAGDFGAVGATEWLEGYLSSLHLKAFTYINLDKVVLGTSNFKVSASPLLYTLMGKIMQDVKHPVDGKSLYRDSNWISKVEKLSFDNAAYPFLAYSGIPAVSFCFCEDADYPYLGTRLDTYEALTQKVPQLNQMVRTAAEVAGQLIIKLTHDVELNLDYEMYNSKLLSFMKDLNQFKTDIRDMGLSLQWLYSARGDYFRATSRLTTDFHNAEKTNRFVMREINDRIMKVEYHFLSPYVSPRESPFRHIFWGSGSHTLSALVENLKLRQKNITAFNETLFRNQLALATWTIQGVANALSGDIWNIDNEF", "assay": "apparent Kd, flow cytometry, CHO cells", "procedure,_shortened": "(§1)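 CHO cells expressing TfR-EGFP fusions, blocked in PBS/BSA 2%, then incubated with increasing VHH concentrations for 1 hr at 4° C. Bound VHH detected via anti-6His antibody and Alexa647 secondary, cells PFA-fixed, read by flow cytometry. Apparent Kd from nonlinear fit.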"}, "[2]": {"biological_target": "T2, rhesus monkey transferrin receptor (rhTfR) fused to EGFP, on CHO cells (rhesus monkey)", "T2 construct": "whole, on cells; also called rhesus monkey TfR", "assay": "apparent Kd, flow cytometry, CHO cells", "procedure,_shortened": "as §1"}, "[3]": {"biological_target": "T3, human transferrin receptor (hTfR) fused to EGFP, on CHO cells (human, UniProt P02786 1-760)", "T3 construct": "whole, on cells; also called human TfR; CHO-hTfR-EGFP; not shown: EGFP from pEGFP-C1 vector, fused to the N-terminal (intracellular) end of hTfR", "T3 sequence (P02786 whole entry, the tested form may be a part)": "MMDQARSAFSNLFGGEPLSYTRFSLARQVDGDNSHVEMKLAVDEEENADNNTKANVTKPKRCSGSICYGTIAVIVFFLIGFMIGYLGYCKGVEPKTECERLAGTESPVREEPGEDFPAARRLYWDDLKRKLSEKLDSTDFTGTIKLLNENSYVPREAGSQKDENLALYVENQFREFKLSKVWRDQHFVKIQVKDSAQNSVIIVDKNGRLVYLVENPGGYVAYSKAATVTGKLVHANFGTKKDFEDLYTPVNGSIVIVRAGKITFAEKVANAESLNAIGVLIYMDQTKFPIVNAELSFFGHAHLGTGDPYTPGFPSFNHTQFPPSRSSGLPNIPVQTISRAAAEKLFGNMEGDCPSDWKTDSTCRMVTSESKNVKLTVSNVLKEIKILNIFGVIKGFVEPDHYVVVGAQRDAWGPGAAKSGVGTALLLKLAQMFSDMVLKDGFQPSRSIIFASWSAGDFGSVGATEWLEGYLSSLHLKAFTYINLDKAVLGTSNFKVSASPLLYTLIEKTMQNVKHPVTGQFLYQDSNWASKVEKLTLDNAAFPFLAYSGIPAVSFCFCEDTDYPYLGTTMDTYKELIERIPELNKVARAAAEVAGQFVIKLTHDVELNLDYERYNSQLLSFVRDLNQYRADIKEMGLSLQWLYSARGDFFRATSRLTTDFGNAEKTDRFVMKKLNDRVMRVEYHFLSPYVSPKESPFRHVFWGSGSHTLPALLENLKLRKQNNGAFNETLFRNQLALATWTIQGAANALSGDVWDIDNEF", "assay": "apparent Kd, flow cytometry, CHO cells", "procedure,_shortened": "as §1"}, "[4]": {"biological_target": "T3, human transferrin receptor (hTfR) fused …", "assay": "competition flow cytometry on CHO-hTfR-EGFP cells, 4 C; VHH competitor in dilution series, phage-C5 tracer at EC80, anti-M13-A647", "method": "FIGS. 17A-17D: Competition assays between VHHs and phage-VHHs. CHO-hTfR-EGFP cells were incubated 1 hr at 4° C. with VHHs (competitors) at increasing concentrations. Phage-VHHs (tracers) were then added at EC80 and incubated for 1 more hr. Phage-VHHs were detected with an anti-M13-A647 antibody (1/200). Fluorescence levels were assessed using flow cytometry. The ratio of fluorescence intensity for each point was normalized with the corresponding EGFP signal (receptor expression) and gave rise to the arbitrary unit. Data are presented as mean±SEM of independent experiments.\nTo evaluate whether selected VHHs compete one with the other for binding to the TfR receptor, competition assays using flow cytometry experiments were performed. All experiments were performed in 96 well plates using 2×10⁵ cells/well, at 4° C. with shaking. CHO cell line expressing the hTfR fused to EGFP was saturated with PBS/BSA 2% solution during 30 min to avoid nonspecific binding, followed by incubation with VHH (competitors) at increasing concentrations for 1 hr. Then, phage-VHHs (tracers) at EC80 were added and incubated 1 hr more. To detect the phage-VHHs, cells were washed twice with PBS/BSA 2% and incubated for 1 hr with an Alexa647-conjugated anti-M13 antibody. […] Fluorescence levels were assessed using an Attune NxT flow cytometer (Thermo Fisher Scientific). […]"}, "[5]": {"biological_target": "T4, murine TfR expressed by murine neuroblastoma Neuro-2a cells (mouse, UniProt Q62351 1-763)", "T4 construct": "whole, on cells; also called mTfR (N2a cells)", "T4 sequence (Q62351 whole entry)": "as the sequence (Q62351 whole entry, the tested form may be a part) above", "assay": "competition with C5-Alexa680 (100 nM) on living Neuro-2a cells, 3 hrs at 37 C, flow cytometry; Ki/app, mean ± SD", "method": "The binding of VHH-Oligo and VHH-hFc-Oligo conjugates to mTfR was evaluated using a competition assay on living cells expressing the receptor of interest, namely murine neuroblastoma Neuro-2a cells (N2a). N2a cells were grown in Dulbecco's Modified Eagle Medium (DMEM) GlutaMAX supplemented with 10% v/v FBS in 5% CO₂ at 37° C. Cells were seeded two days before experiments in 96-well plates at a density of 50.000 cells/well. […] Resuspended cells were transferred in a 96-deepwell plate (V-bottom) containing 1% fetal bovine serum (FBS)/0.02% sodium azide in phosphate-buffered saline (PBS) and then centrifuged for 5 min at 2000 rpm at 4° C. After removing the supernatant, 5 mM EDTA in D-PBS and 4% paraformaldehyde (PFA) (v/v 1:1) were added into wells to fix cells for 15 min at room temperature. PFA was removed by centrifugation (5 min, 3000 rpm, 4° C.) and cells were resuspended with 5 mM EDTA in D-PBS. Then the cellular A680-associated fluorescence signal was quantified using an Attune™ NxT flow cytometer (Thermo Fisher Scientific) equipped with Attune™ NxT v3.1.2. Experimental data (experimental triplicates) were fitted with GraphPad Prism® software using a nonlinear fit to determine the apparent Ki inhibition constants."}, "[6]": {"biological_target": "T3, human transferrin receptor (hTfR) fused …", "assay": "flow cytometry on CHO-hTfR-EGFP cells, 1 hr at 4 C, anti-6His + Alexa647 anti-mouse; nonlinear fit", "method": "CHO-hTfR-EGFP cells were incubated 1 hr at 4° C. with various concentrations of the indicated compounds. Detection of VHHs was performed using a primary mouse anti-6His (1/1000) and an Alexa647-conjugated anti-mouse secondary antibody (1/400). Measurements of cell-surface signal associated with VHH were performed using flow cytometry. The results are expressed as the ratio of Alexa647-associated fluorescence intensity of test compounds to that of background fluorescence."}}}
{"binder": "B1", "values": [{"measurement": "Kd", "setting": "[1]", "value": 50, "unit": "nM"}, {"measurement": "Kd", "setting": "[2]", "value": 4.9, "unit": "nM"}, {"measurement": "Kd", "setting": "[3]", "value": 2.7, "unit": "nM"}, {"measurement": "IC50 (read off the curve)", "setting": "[4]", "value": "~50", "unit": "nM"}, {"measurement": "Ki", "setting": "[5]", "value": 319, "unit": "nM"}, {"measurement": "Kd", "setting": "[6]", "value": 5.15, "unit": "nM"}]}
